pIC50: −log10 of the molar value.
Assays:
[1] = molecular target: HLA-A*01:01; assay: IEDB peptide-MHC binding, cellular MHC/competitive/fluorescence; ≥ and ≤ were set here for values at or beyond the usual limits of such assays; conditions: source organism: Vaccinia virus WR
[2] = molecular target: HLA-A*26:01; assay: as above; conditions: source organism: Vaccinia virus WR
[3] = molecular target: HLA-A*29:02; assay: as above; conditions: source organism: Vaccinia virus WR
[4] = molecular target: HLA-A*23:01; assay: IEDB peptide-MHC binding, purified MHC/competitive/radioactivity; ≥ and ≤ were set here for values at or beyond the usual limits of such assays; conditions: source organism: Vaccinia virus WR
[5] = molecular target: HLA-A*24:02; assay: as above; conditions: source organism: Vaccinia virus WR
[6] = molecular target: HLA-A*30:02; assay: as above; conditions: source organism: Vaccinia virus WR
[7] = molecular target: HLA-A*03:01; assay: IEDB peptide-MHC binding, cellular MHC/competitive/fluorescence; ≥ and ≤ were set here for values at or beyond the usual limits of such assays; conditions: source organism: Mammarenavirus choriomeningitidis
[8] = molecular target: HLA-A*11:01; assay: as above; conditions: source organism: Mammarenavirus choriomeningitidis
[9] = molecular target: HLA-A*31:01; assay: as above; conditions: source organism: Mammarenavirus choriomeningitidis
[10] = molecular target: HLA-A*33:01; assay: IEDB peptide-MHC binding, purified MHC/competitive/radioactivity; ≥ and ≤ were set here for values at or beyond the usual limits of such assays; conditions: source organism: Mammarenavirus choriomeningitidis
[11] = molecular target: HLA-A*68:01; assay: as above; conditions: source organism: Mammarenavirus choriomeningitidis
[12] = molecular target: HLA-B*18:01; assay: IEDB peptide-MHC binding, cellular MHC/competitive/fluorescence; ≥ and ≤ were set here for values at or beyond the usual limits of such assays; conditions: source organism: Mammarenavirus guanaritoense
[13] = molecular target: HLA-B*44:02; assay: as above; conditions: source organism: Mammarenavirus guanaritoense
[14] = molecular target: HLA-B*44:03; assay: as above; conditions: source organism: Mammarenavirus guanaritoense
[15] = molecular target: HLA-B*45:01; assay: as above; conditions: source organism: Mammarenavirus guanaritoense
[16] = molecular target: HLA-B*40:01; assay: IEDB peptide-MHC binding, purified MHC/competitive/radioactivity; ≥ and ≤ were set here for values at or beyond the usual limits of such assays; conditions: source organism: Mammarenavirus guanaritoense
[17] = molecular target: HLA-B*40:02; assay: as above; conditions: source organism: Mammarenavirus guanaritoense
[18] = molecular target: HLA-A*33:01; assay: IEDB peptide-MHC binding, cellular MHC/competitive/fluorescence; ≥ and ≤ were set here for values at or beyond the usual limits of such assays; conditions: source organism: Mammarenavirus choriomeningitidis
[19] = molecular target: HLA-A*68:01; assay: as above; conditions: source organism: Mammarenavirus choriomeningitidis
[20] = molecular target: HLA-A*03:01; assay: IEDB peptide-MHC binding, purified MHC/competitive/radioactivity; ≥ and ≤ were set here for values at or beyond the usual limits of such assays; conditions: source organism: Mammarenavirus choriomeningitidis
[21] = molecular target: HLA-A*02:01; assay: IEDB peptide-MHC binding, cellular MHC/competitive/fluorescence; ≥ and ≤ were set here for values at or beyond the usual limits of such assays; conditions: source organism: Vaccinia virus WR
[22] = molecular target: HLA-A*02:02; assay: as above; conditions: source organism: Vaccinia virus WR
[23] = molecular target: HLA-A*30:02; assay: as above; conditions: source organism: Vaccinia virus WR
[24] = molecular target: HLA-A*68:02; assay: as above; conditions: source organism: Vaccinia virus WR
[25] = molecular target: HLA-A*02:03; assay: IEDB peptide-MHC binding, purified MHC/competitive/radioactivity; ≥ and ≤ were set here for values at or beyond the usual limits of such assays; conditions: source organism: Vaccinia virus WR
[26] = molecular target: HLA-A*02:06; assay: as above; conditions: source organism: Vaccinia virus WR
[27] = molecular target: HLA-A*02:01; assay: as above; conditions: source organism: Vaccinia virus WR
[28] = molecular target: HLA-A*02:02; assay: as above; conditions: source organism: Vaccinia virus WR
[29] = molecular target: HLA-A*23:01; assay: IEDB peptide-MHC binding, cellular MHC/competitive/fluorescence; ≥ and ≤ were set here for values at or beyond the usual limits of such assays; conditions: source organism: Vaccinia virus WR
[30] = molecular target: HLA-A*24:02; assay: as above; conditions: source organism: Vaccinia virus WR
[31] = molecular target: HLA-A*26:01; assay: IEDB peptide-MHC binding, purified MHC/competitive/radioactivity; ≥ and ≤ were set here for values at or beyond the usual limits of such assays; conditions: source organism: Vaccinia virus WR

**Q.** How did the pIC50 [1] turn out when AQQFCQYLI was run?
**A.** Its pIC50 is 4.49.

**Q.** And the pIC50 [2]?
**A.** The pIC50 was 4.31.

**Q.** What about the pIC50 [3] of the same sequence?
**A.** Its pIC50 is 4.34.

**Q.** And the pIC50 [4]?
**A.** Its pIC50 is 7.07.

**Q.** What about the pIC50 [5] of the same sequence?
**A.** Its pIC50 is 6.50.

**Q.** What about the pIC50 [6] of the same sequence?
**A.** Its pIC50 is 6.13.

**Q.** Which results are given for TSAYLISIFL?
**A.** pIC50 [7]: 5.04; pIC50 [8]: ≤ 4.15; pIC50 [9]: 5.51; pIC50 [10]: 5.66; pIC50 [11]: 5.94

**Q.** How did the pIC50 [12] turn out when ADKNLIKCS was run?
**A.** The pIC50 was at most 4.15.

**Q.** And the pIC50 [13]?
**A.** The pIC50 was at most 4.15.

**Q.** And the pIC50 [14]?
**A.** Its pIC50 is at most 4.15.

**Q.** And the pIC50 [15]?
**A.** Its pIC50 is at most 4.15.

**Q.** And the pIC50 [16]?
**A.** Its pIC50 is 6.50.

**Q.** And the pIC50 [17]?
**A.** Its pIC50 is 6.99.

**Q.** With TLMSIVSSLH as the sequence, how does the pIC50 [8] read?
**A.** Its pIC50 is 5.02.

**Q.** What about the pIC50 [9] of the same sequence?
**A.** Its pIC50 is 4.94.

**Q.** What about the pIC50 [18] of the same sequence?
**A.** Its pIC50 is at most 4.15.

**Q.** And the pIC50 [19]?
**A.** Its pIC50 is 5.18.

**Q.** What about the pIC50 [20] of the same sequence?
**A.** Its pIC50 is 5.40.

**Q.** VQYRILPMII was tested. Which pIC50 [1] did it give?
**A.** The pIC50 was 4.46.

**Q.** What about the pIC50 [21] of the same sequence?
**A.** The pIC50 was 5.03.

**Q.** What about the pIC50 [22] of the same sequence?
**A.** Its pIC50 is 5.00.

**Q.** And the pIC50 [2]?
**A.** The pIC50 was at most 4.15.

**Q.** What about the pIC50 [3] of the same sequence?
**A.** The pIC50 was at most 4.15.

**Q.** What about the pIC50 [23] of the same sequence?
**A.** Its pIC50 is 5.11.

**Q.** And the pIC50 [24]?
**A.** The pIC50 was 4.67.

**Q.** What about the pIC50 [25] of the same sequence?
**A.** The pIC50 was 6.22.

**Q.** And the pIC50 [26]?
**A.** Its pIC50 is 6.40.

**Q.** What about the pIC50 [4] of the same sequence?
**A.** Its pIC50 is 6.25.

**Q.** And the pIC50 [5]?
**A.** Its pIC50 is 5.79.

**Q.** With RQVSVKLLI as the sequence, how does the pIC50 [1] read?
**A.** Its pIC50 is 4.62.

**Q.** And the pIC50 [22]?
**A.** Its pIC50 is 4.75.

**Q.** And the pIC50 [2]?
**A.** Its pIC50 is 5.20.

**Q.** And the pIC50 [3]?
**A.** The pIC50 was at most 4.15.

**Q.** What about the pIC50 [24] of the same sequence?
**A.** Its pIC50 is 4.82.

**Q.** And the pIC50 [27]?
**A.** Its pIC50 is 6.60.

**Q.** And the pIC50 [25]?
**A.** Its pIC50 is 6.60.

**Q.** What about the pIC50 [26] of the same sequence?
**A.** Its pIC50 is 9.89.

**Q.** And the pIC50 [4]?
**A.** Its pIC50 is 6.08.

**Q.** And the pIC50 [5]?
**A.** The pIC50 was 5.59.

**Q.** What about the pIC50 [6] of the same sequence?
**A.** Its pIC50 is 6.28.

**Q.** Which results are given for FQESFYEDI?
**A.** pIC50 [1]: ≤ 4.15; pIC50 [21]: 4.89; pIC50 [2]: ≤ 4.15; pIC50 [3]: 4.24; pIC50 [23]: ≤ 4.15; pIC50 [24]: 4.43; pIC50 [28]: 5.64; pIC50 [25]: 5.35; pIC50 [26]: 6.73; pIC50 [4]: 6.58; pIC50 [5]: 6.36

**Q.** NQGNILMDSI was tested. Which pIC50 [1] did it give?
**A.** Its pIC50 is 4.62.

**Q.** What about the pIC50 [21] of the same sequence?
**A.** The pIC50 was 5.01.

**Q.** What about the pIC50 [29] of the same sequence?
**A.** The pIC50 was at most 4.15.

**Q.** And the pIC50 [30]?
**A.** Its pIC50 is 4.17.

**Q.** And the pIC50 [3]?
**A.** The pIC50 was 5.13.

**Q.** And the pIC50 [24]?
**A.** The pIC50 was 4.56.

**Q.** And the pIC50 [28]?
**A.** Its pIC50 is 5.41.

**Q.** And the pIC50 [25]?
**A.** Its pIC50 is 5.39.

**Q.** What about the pIC50 [26] of the same sequence?
**A.** Its pIC50 is 5.51.

**Q.** What about the pIC50 [31] of the same sequence?
**A.** Its pIC50 is 5.56.

**Q.** What about the pIC50 [6] of the same sequence?
**A.** Its pIC50 is 5.40.

Source: the Immune Epitope Database (IEDB)
